# Laboratory results as given in US20080280828A1 (NATURAL ENVIRONMENT RESEARCH COUNCIL, published 2008).
# B1: recombinant IGBPMA (rIGBPMA), N-terminal 26 amino acid truncated, C-terminal 6-His-tag, expressed in (other)
# chain: YEVYTGRGVTITVDNTQYEIPADLEKIFQKPKGFSVGSLLVALQEKGIPVNVDEKTGVILGITIDKVRVPFPVSIDLRFKLDNQIYLIPRDLAKLITVLEKKGMPSKILFILYTRYGVVPVRDSNGIVVAISFNGKQFKVKPEPLTAVVILGQKFILPRDTRKMVEFVHSKQSHPEIGFIFLKALKSAGFMLINDDDGAMRSIQKGAQIIKLGFEIRIQVIYGKTTYHVPKDLMRLVKDVRSLGPQEIQSVMKQLKAFDVQVKKEGSKLTILFNSVRYEVDLKSGNVKGHHHHHH
# notes: also called soluble rIGBPMA; Clone No. F6
# Assays:
# [1] = biological target: T1, human IgG Fc fragment (ICN) (human); assay: SPR (BIAcore 2000), human Fc immobilised, rIGBPMA 1 mg/ml as analyte
# T1 construct: domain: Fc fragment; also called human Fc fragment; Fc (human) fragment
# human IgE (Serotech) = human IgE (Serotech) (human); assay: SPR (BIAcore 2000), human IgE against guinea pig IgG on the same chip
binder,measurement,setting,value
B1,"fold of binding over non-specific binding (BSA, F(ab)2)",[1],2 fold
same,fold of binding signal against IgG,human IgE (Serotech),2 fold
